± gives the standard deviation of the averaged measurements.
What follows are sequences tested on ATP (assay: switch fluorescence ratio, 500 uM ATP over buffer (Cy3 cluster intensity, sum of 5 cycles each) (fold (ratio)); higher = stronger signal-on switching upon ATP binding; sequences stand for … in TCGTCGGCAGCGTCAGATGTGTATAAGAGACAGTTTTTTTTTTTTTTTTTTTTTTTTT…TC). Conditions: aptamer strand: ATP DNA aptamer (quencher-CACCTGGGGGAGTATTGCGGAGGAAGG + anchor), 100 nM annealed; ATP concentration: 500 uM.
Outline: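 Cy3-labelled switching-strand clusters on a modified Illumina MiSeq flow-cell were annealed to 100 nM quencher-labelled ATP aptamer, imaged in selection buffer, then imaged after 15 min with 500 uM ATP at 22 °C. Five buffer/ATP cycles ran, with NaOH stripping and re-annealing between them. The fluorescence ratio is summed target-cycle over summed buffer-cycle Cy3 intensity per cluster, averaged per switch-domain sequence. Clusters outside 100-1000 RFU were excluded.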
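Also: ATP exposure 15 min at 22 °C before imaging.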

Row | Sequence | switch fluorescence ratio
1 | TTCTAAGGTA | 0.993 ± 0.021
2 | GTAATAGTGT | 0.981 ± 0.018
3 | TTTGGGGCGC | 1.01 ± 0.048
4 | GGCCGAGCTC | 1.012 ± 0.0085
5 | GGGTATCAG | 0.955 ± 0.03
6 | GCATGAGAGG | 0.987 ± 0.021
7 | CGTTGGATT | 0.986 ± 0.017
8 | ACTATGAGTT | 0.9975 ± 0.0073
9 | AGCTGTCTCA | 0.991 ± 0.017
10 | ATGAGGGGAA | 1.04 ± 0.034
11 | CATGGCTTAT | 1.01 ± 0.038
12 | TTGTTATACG | 1.09 ± 0.079
13 | GCACGCTAGG | 1.07 ± 0.041
14 | CCGGGGGGAA | 1.03 ± 0.063
15 | AGGATCATGG | 1.01 ± 0.021
16 | ATGCGGGTTC | 1.01 ± 0.012
17 | AGTGGGCAGG | 1.04 ± 0.02
18 | ATATTAGGCA | 1.01 ± 0.037
19 | GATAAGAGCG | 0.975 ± 0.029
20 | TTTGGAATCA | 1.008 ± 0.0098
21 | CGTCAAACAT | 1.081 ± 0.0084
22 | TTTAGTAATA | 1.03 ± 0.021
23 | AGAGGTGACA | 0.999 ± 0.061

Row | Sequence | switch fluorescence ratio
24 | GTTAGAAGGT | 1 ± 0.018
25 | TTTTTCCGCA | 2.18 ± 0.83
26 | CCGTTGTCTT | 1.03 ± 0.025
27 | AAAATCATTG | 0.9615 ± 0.0027
28 | TTAGAGCTTT | 0.975 ± 0.021
29 | TGTTTGGGAG | 1.01 ± 0.031
30 | GGCATGAGAC | 1.06 ± 0.047
31 | TTGGAATTGT | 1.005 ± 0.0075
32 | ATTTAGTACA | 0.973 ± 0.011
33 | ATGGTATTTT | 1.01 ± 0.013
34 | CAGGGAGTAG | 1.01 ± 0.021
35 | ATAATTGGGT | 0.993 ± 0.022
36 | GGGGGCGTGT | 0.977 ± 0.019
37 | TGCTCCAAGT | 1.03 ± 0.013
38 | GGGATTTGTT | 0.9888 ± 0.0057
39 | TCGGTGCGAC | 1.04 ± 0.032
40 | TCTTAAAGGG | 0.9808 ± 0.0011
41 | CTTATCGGCA | 1.0825 ± 0.00095
42 | GGTATTACGT | 0.972 ± 0.032
43 | CCAAGAGGAC | 1 ± 0.027
44 | GGGATTTTTT | 1.06 ± 0.16
45 | TCTTGGGCCG | 1.03 ± 0.061
46 | CGTCTTACGT | 1.03 ± 0.051

Row | Sequence | switch fluorescence ratio
47 | TTCATAATGT | 0.9632 ± 0.0096
48 | CGCAATTGTT | 2.49 ± 0.55
49 | TTCGGTGGTT | 1.08 ± 0.076
50 | TTTTCTAGGG | 1.01 ± 0.017
51 | TGTTGCTTCG | 1.03 ± 0.042
52 | TGTGGACTGT | 0.9855 ± 0.0015
53 | AAAGAGAGTT | 0.9964 ± 0.0065
54 | CAACCGGGAA | 1.1 ± 0.021
55 | GTTGATTTGG | 0.981 ± 0.015
56 | ATACAGGGCT | 1.01 ± 0.029
57 | TTTTAGGCAT | 1.01 ± 0.031
58 | TAACGGCGGT | 0.978 ± 0.021
59 | ATGTAACTCG | 1.03 ± 0.044
60 | CTTTGGGGCT | 0.999 ± 0.038
61 | CATTAGACAT | 0.994 ± 0.026
62 | CGGGATAGAT | 1 ± 0.039
63 | GAAGCCGGGC | 1.04 ± 0.022
64 | ATAGTTTTCC | 1 ± 0.024
65 | TTTCTTTTTA | 0.9791 ± 0.0032
66 | TTGCATGGGC | 1.05 ± 0.063
67 | ATGTTGATCC | 1.03 ± 0.03
68 | GGGTATGCAT | 0.973 ± 0.011
69 | TAGATGTTGA | 0.973 ± 0.036

Row | Sequence | switch fluorescence ratio
70 | GCAGGTTGAG | 1.01 ± 0.044
71 | CGGGGAGAGG | 0.998 ± 0.036
72 | GGTGATATGT | 0.997 ± 0.018
73 | GGGTAGCTAG | 1.04 ± 0.022
74 | AAGGGATATG | 1 ± 0.013
75 | TTTTTGGAGG | 1 ± 0.034
76 | CTCTAACGG | 0.982 ± 0.089
77 | ATAGGTACGC | 1.04 ± 0.036
78 | GGGGGTAAAA | 1.01 ± 0.029
79 | TGGAACTTTT | 0.974 ± 0.021
80 | TTGCTCATAA | 1 ± 0.032
81 | GTGGTAGGGA | 0.98 ± 0.019
82 | ATGATTGTGG | 0.997 ± 0.028
83 | CAAACGGGGT | 1.01 ± 0.024
84 | TTTTTTAGCT | 1.01 ± 0.055
85 | CACTGACTTA | 1.19 ± 0.032
86 | TAAAGGTTAC | 1.03 ± 0.028
87 | TGTGTCTACA | 1 ± 0.024
88 | ACGTTAAGCG | 1.01 ± 0.035
89 | TGACGTTTGC | 1.03 ± 0.12
90 | TTCGGGATTA | 1 ± 0.018
91 | CATGCGGTTG | 0.978 ± 0.013
92 | GGGGAATGGA | 0.982 ± 0.028

Row | Sequence | switch fluorescence ratio
93 | CATTATTTTT | 1.01 ± 0.024
94 | TTATGACGGG | 1 ± 0.036
95 | AATGGGCGCT | 0.97198 ± 0.00095
96 | GGGAGGCGAT | 0.975 ± 0.051
97 | ACGAGGCGTA | 1.04 ± 0.0046
98 | GATGTACCTC | 1.05 ± 0.0046
99 | GCTTTAATAA | 0.991 ± 0.077
100 | GTATGGATTC | 0.987 ± 0.057
101 | CCCTGGCAGC | 1.3 ± 0.019
102 | AGAGACAGCT | 0.994 ± 0.05
103 | CGGACCAGCG | 0.965 ± 0.0086
104 | GAGTGTGTTC | 1.01 ± 0.024
105 | ACTGGTTTTT | 0.987 ± 0.036
106 | CGGATTTAAG | 0.9979 ± 0.0066
107 | AGCTGAGGGG | 1.01 ± 0.012
108 | CGTTTTTGGG | 0.985 ± 0.036
109 | TCGGAGTAAC | 1.667 ± 0.0081
110 | GGTTTTTGCT | 0.9584 ± 0.0068
111 | TGCAGGTTGG | 1.03 ± 0.036
112 | TACTTCATTC | 1.037 ± 0.0095
113 | CGGGCGCTGG | 0.995 ± 0.018
114 | ATAAATGAGG | 1.01 ± 0.014
115 | CAGTGGCCTA | 0.99094 ± 0.00045

Row | Sequence | switch fluorescence ratio
116 | TTTTTGATGA | 1.02 ± 0.015
117 | GAGATGGTAG | 0.976 ± 0.0069
118 | TTGAGCAGCG | 1.09 ± 0.07
119 | CGTCAGCGAA | 1.18 ± 0.039
120 | TAGCTGAAGT | 0.975 ± 0.038
121 | GACTTAAGGC | 1.005 ± 0.0011
122 | CTTATCTCTG | 1.05 ± 0.019
123 | GATCGGGCCG | 0.975 ± 0.052
124 | CGGGGTCGCC | 0.984 ± 0.021
125 | GTATGTGGGT | 1.023 ± 0.0072
126 | AATTCTGGCT | 1.006 ± 0.0071
127 | TTAATGGGA | 0.995 ± 0.011
128 | GGGGATTTAG | 0.971 ± 0.027
129 | GTGGCTATGG | 0.96188 ± 0.00027
130 | TGATGGCCGG | 1.05 ± 0.04
131 | ACTTTTAGGT | 1.0193 ± 0.00024
132 | AAGTTTTTTC | 1.012 ± 0.0053
133 | GTTAGAGCGG | 1.02 ± 0.031
134 | TAGTGGTTT | 0.986 ± 0.024
135 | CGGGAGCAGG | 1.09 ± 0.014
136 | TAACCCCGCT | 1.42 ± 0.25
137 | CTGGTATGCG | 0.969 ± 0.054
138 | TTTTTGGAAA | 1.01 ± 0.051

Row | Sequence | switch fluorescence ratio
139 | GTAATATCGG | 0.998 ± 0.018
140 | AGTAGTCGTC | 0.99 ± 0.058
141 | GACTTAGTTG | 0.987 ± 0.0068
142 | ATCGGAAGCG | 1.03 ± 0.011
143 | ACCTCGGTCG | 0.983 ± 0.019
144 | CGGGGTGCTT | 1.01 ± 0.012
145 | CCTGGGGCTA | 1.25 ± 0.021
146 | AAATGGGTTC | 0.9874 ± 0.0083
147 | AGGGGCTGGG | 0.99 ± 0.017
148 | CATTATTTGG | 1.003 ± 0.002
149 | CTAACGGACT | 1.16 ± 0.068
150 | TGGGTGTTGC | 0.941 ± 0.083
151 | AGATGTCAGC | 0.9708 ± 0.0063
152 | CGGTCGAGGT | 0.993 ± 0.038
153 | AAACTTTAGT | 0.987 ± 0.018
154 | TAGATTCTGA | 1.01 ± 0.032
155 | GATGTCGCGC | 1.01 ± 0.028
156 | GTGGCGTGGA | 0.991 ± 0.021
157 | TTTAGCTGAA | 0.962 ± 0.024

— the supplement of paper PMC10126150
